# From patent US11584938B2, “Plant EPSPS mutant containing L195P and S247G mutations and encoding gene and use thereof” (GEVOTO LLC, priority 2017, dated 2023)
# Where “and” joins values, the source holds several entries; their conditions need not be identical. Identical values can stand only once.
# B1: R6: rice EPSPS mutant, SEQ ID NO: 40, mutations S267(247)G, L214(195)P and P116(101)S (protein)
# chain: MASNAAAAAAKAEEIVLQPIREISGAVQLPGSKSLSNRILLLSALSEGTTVVDNLLNSEDVHYMLEALKALGLSVEADKVAKRAVVVGCGGKFPVEKDAKEEVQLFLGNAGTAMRSLTAAVTAAGGNATYVLDGVPRMRERPIGDLVVGLKQLGADVDCFLGTECPPVRVKGIGGLPGGKVKLSGSISSQYLSALLMAAPLALGDVEIEIIDKPISIPYVEMTLRLMERFGVKAEHSDSWDRFYIKGGQKYKSPGNAYVEGDASSAGYFLAGAAITGGTVTVQGCGTTSLQGDVKFAEVLEMMGAKVTWTDTSVTVTGPPREPYGKKHLKAVDVNMNKMPDVAMTLAVVALFADGPTAIRDVASWRVKETERMVAIRTELTKLGASVEEGPDYCIITPPEKLNITAIDTYDDHRMAMAFSLAACADVPVTIRDPGCTRKTFPNYFDVLSTFVRN
# Tested on: transgenic rice plants
# Assay: glyphosate resistance of the EPSPS mutant in transgenic rice plants sprayed with Roundup 41% ammonium glyphosate
# Assay type: in vivo, rice (Nipponbare)
# In short: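 EPSPS mutant genes were cloned into pGVP1 and introduced into Nipponbare rice embryo-derived calluses via Agrobacterium EHA105 (OD 0.2, 10 min infection, 2–3 days co-culture at 25 °C in the dark). Calluses went through recovery, two 14-day screening rounds at 30 °C, two differentiation rounds and rooting to regenerate transgenic plants.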
# [1] = 1× dosage 1060 g/hectare glyphosate sprayed, recorded on 10th day
# [2] = 2× dosage 2120 g/hectare sprayed to plants surviving 1×, recorded 10 days later
# [3] = 5× dosage 5300 g/hectare sprayed to plants surviving 2×, recorded 10 days later
# [4] = 20× dosage 21200 g/hectare sprayed to plants surviving 5×, recorded 10 days later
molecule,measurement,setting,value
B1,%++&+++ (percentage of plant having medium and high glyphosate resistance to the total number of plants observed),[1],70.0%
same,number of plants denoted by + (low glyphosate resistance),[1],7
same,number of plants denoted by ++ (medium glyphosate resistance),[1],3
same,number of plants denoted by +++ (high glyphosate resistance),[1],18
same,number of plants denoted by − (no glyphosate resistance),[1],2
same,"glyphosate resistance / survival of the rice transformed by the EPSPS, in words",1× glyphosate dosage,had relatively high resistance to glyphosate
same,number of plants denoted by + (low glyphosate resistance),[2],3
same,number of plants denoted by ++ (medium glyphosate resistance),[2],1
same,number of plants denoted by +++ (high glyphosate resistance),[2],18
same,number of plants denoted by − (no glyphosate resistance),[2],8
same,"glyphosate resistance / survival of the rice transformed by the EPSPS, in words",2× glyphosate dosage,had relatively high resistance to glyphosate
same,&++&+++ (percentage of plant having medium and high glyphosate resistance to the total number of plants observed),[3],63.3%
same,number of plants denoted by + (low glyphosate resistance),[3],0
same,number of plants denoted by ++ (medium glyphosate resistance),[3],6
same,number of plants denoted by +++ (high glyphosate resistance),[3],13
same,number of plants denoted by − (no glyphosate resistance),[3],11
same,&++&+++ (percentage of plant having medium and high glyphosate resistance to the total number of plants observed),[4],63.38% and 63.3%
same,number of plants denoted by + (low glyphosate resistance),[4],0
same,number of plants denoted by ++ (medium glyphosate resistance),[4],11
same,number of plants denoted by +++ (high glyphosate resistance),[4],8
same,number of plants denoted by − (no glyphosate resistance),[4],11
